Source: article PMC4176176, “The CRISPR-associated Cas4 protein Pcal_0546 from Pyrobaculum calidifontis contains a [2Fe-2S] cluster: crystal structure and nuclease activity” (Nucleic Acids Research, 2014)

Biological target: the molecule itself
Assay: SEC; size-exclusion chromatography of the purified protein on a Superdex S200 10/300 GL column

B1: Cas4 protein SSO1391 from Sulfolobus solfataricus (enzyme, UniProt Q97YD4 1-291, looked up)
chain: MFFTHSDMLLLSKRIKKLPKNVDEELRGWNWSEPPVYTRSLSQVSISEMVYCSTLRNVYLKVKGFRGEIGRQILQGSLIHTIYAIGIEAIKRFIYSRESIDGSTLRTLMGDEFYSLLKDLREEEGIYAKVLWDHITNIYSAELDRVRSKFTNLTRDSLVSQVVPFYVEFPVDGSLLGLTNLRVDAFIPHLPLIAEMKTGKYRYTHELSLAGYALAIESQYEIPIDFGYLCYVTVTEKEVKNNCKLIPISDSLRSEFLDMRDKAQDIMDKGVDPGIAKDCESDCMFYKVCHP
notes: Cas4 protein SSO1391 (DUF911 family), Sulfolobus solfataricus; predicted molecular mass 35.9 kDa
stoichiometry N: 2
